B1: Hairpin Ribozyme (parent)
chain: GUCCUCUUUCACGUGCGCGUGAAAGAGAGAAGUGAACCAGAGAAACACACGUUGUGGUAUAUUACCUGGUA

Variants of: B1
Assay: self-cleavage, relative activity (ratio to wild type); higher = more cleavage; co-transcriptional

First: GUCCUCUUUCACGUGCGCGUGAAAGAGAGAAGUGAACCAGAGUAACACACGUUGUGCUAUAUUACCUGGUA [A43U G57C]
Second: GUCCUCUUUCACGUGCGCGUGAAAGAGAGAAGUGAACCAGAGUAACACAAGUUGUGGUAUAUUACCUGGUA [A43U C50A]
The self-cleavage of the first is higher: 0.17 for the first, 0.0923 for the second.

Going from GUCCUCUUUCACGUGCGCGUGAAAGAGAGAAGUGAACCAGAGUUACACACGUUGUGGUAUAUUACCUGGUA [A43U A44U] to GUCCUCUUUCACGUGCGCGUGAAAGAGAGAAGUGAACCAGAGUCACACACGUUGUGGUAUAUUACCUGGUA [A43U A44C], the self-cleavage rises from 0.141 to 0.157.

Going from GUCCUCUUUCACGUGCGCGUGAAAGAGAGAAGUGAACCAGAGUAACAUACGUUGUGGUAUAUUACCUGGUA [A43U C48U] to GUCCUCUUUCACGUGCGCGUGAAAGAGAGAAGUGAACCAGAGUAACAGACGUUGUGGUAUAUUACCUGGUA [A43U C48G], the self-cleavage rises from 0.162 to 0.166.

Compared with GUCCUCUUUCACGUGCGCGUGAAAGAGAGAAGUGAACCAGAGUAACACACGUUGUGGCAUAUUACCUGGUA [A43U U58C], GUCCUCUUUCACGUGCGCGUGAAAGAGAGAAGUGAACCAGAGUAACACACGUUGUGGUAUAUUAGCUGGUA [A43U C65G] is lower in self-cleavage: 0.189 for the first, 0.155 for the second.

Going from GUCCUCUUUCACGUGCGCGUGAAAGAGAGAAGUGAACCAGAGUAACACACGUUGUGGUAUAUUAUCUGGUA [A43U C65U] to GUCCUCUUUCACGUGCGCGUGAAAGAGAGAAGUGAACCAGAGGAACACACGUUGUGGUAUAUUCCCUGGUA [A43G A64C], the self-cleavage rises from 0.144 to 0.191.

First: GUCCUCUUUCACGUGCGCGUGAAAGAGAGAAGUGAACCAGAGUAACACACGUUGUAGUAUAUUACCUGGUA [A43U G56A]
Second: GUCCUCUUUCACGUGCGCGUGAAAGAGAGAAGUGAACCAGAGUAACACACGUUGUGGUAUAUUACCUCGUA [A43U G68C]
The self-cleavage of the first is higher: 0.155 for the first, 0.106 for the second.

Going from GUCCUCUUUCACGUGCGCGUGAAAGAGAGAAGUGAACCAGAGUAACACACGUUGUGGUAUAUUGCCUGGUA [A43U A64G] to GUCCUCUUUCACGUGCGCGUGAAAGAGAGAAGUGAACCAGAGGAACACACGUUAUGGUAUAUUACCUGGUA [A43G G54A], the self-cleavage falls from 0.159 to 0.066.

First: GUCCUCUUUCACGUGCGCGUGAAAGAGAGAAGUGAACCAGAGUAACACACGUUGUGGUCUAUUACCUGGUA [A43U A59C]
Second: GUCCUCUUUCACGUGCGCGUGAAAGAGAGAAGUGAACCAGAGGAACACACGUUGUGGUAUAUUACCAGGUA [A43G U67A]
The self-cleavage of the first is lower: 0.12 for the first, 0.125 for the second.

Going from GUCCUCUUUCACGUGCGCGUGAAAGAGAGAAGUGAACCAGAGGAACACACGUUGUGGUUUAUUACCUGGUA [A43G A59U] to GUCCUCUUUCACGUGCGCGUGAAAGAGAGAAGUGAACCAGAGUAACACACGUUGCGGUAUAUUACCUGGUA [A43U U55C], the self-cleavage falls from 0.157 to 0.0805.

Going from GUCCUCUUUCACGUGCGCGUGAAAGAGAGAAGUGAACCAGAGGAACACACGUUGCGGUAUAUUACCUGGUA [A43G U55C] to GUCCUCUUUCACGUGCGCGUGAAAGAGAGAAGUGAACCAGAGGAACACACGUUGAGGUAUAUUACCUGGUA [A43G U55A], the self-cleavage falls from 0.201 to 0.0267.

Going from GUCCUCUUUCACGUGCGCGUGAAAGAGAGAAGUGAACCAGAGGAAUACACGUUGUGGUAUAUUACCUGGUA [A43G C46U] to GUCCUCUUUCACGUGCGCGUGAAAGAGAGAAGUGAACCAGAGUAACACGCGUUGUGGUAUAUUACCUGGUA [A43U A49G], the self-cleavage rises from 0.0992 to 0.151.

Going from GUCCUCUUUCACGUGCGCGUGAAAGAGAGAAGUGAACCAGAGUAACACACGUUGUGGUAUUUUACCUGGUA [A43U A61U] to GUCCUCUUUCACGUGCGCGUGAAAGAGAGAAGUGAACCAGAGGAACACACGUUGUGGUAUAUUACCUGUUA [A43G G69U], the self-cleavage falls from 0.174 to 0.126.

First: GUCCUCUUUCACGUGCGCGUGAAAGAGAGAAGUGAACCAGAGUAACACACGUUGUGGUAUAUUACGUGGUA [A43U C66G]
Second: GUCCUCUUUCACGUGCGCGUGAAAGAGAGAAGUGAACCAGAGGAACACACUUUGUGGUAUAUUACCUGGUA [A43G G51U]
The self-cleavage of the first is lower: 0.138 for the first, 0.245 for the second.

Going from GUCCUCUUUCACGUGCGCGUGAAAGAGAGAAGUGAACCAGAGGAACACACGUUGUGGUAUAUUAUCUGGUA [A43G C65U] to GUCCUCUUUCACGUGCGCGUGAAAGAGAGAAGUGAACCAGAGUACCACACGUUGUGGUAUAUUACCUGGUA [A43U A45C], the self-cleavage falls from 0.224 to 0.0872.

Going from GUCCUCUUUCACGUGCGCGUGAAAGAGAGAAGUGAACCAGAGUAGCACACGUUGUGGUAUAUUACCUGGUA [A43U A45G] to GUCCUCUUUCACGUGCGCGUGAAAGAGAGAAGUGAACCAGAGGAACACAGGUUGUGGUAUAUUACCUGGUA [A43G C50G], the self-cleavage rises from 0.119 to 0.133.

Going from GUCCUCUUUCACGUGCGCGUGAAAGAGAGAAGUGAACCAGAGUAAUACACGUUGUGGUAUAUUACCUGGUA [A43U C46U] to GUCCUCUUUCACGUGCGCGUGAAAGAGAGAAGUGAACCAGAGGAACACACGUUGUGGUAUGUUACCUGGUA [A43G A61G], the self-cleavage rises from 0.187 to 0.188.

Compared with GUCCUCUUUCACGUGCGCGUGAAAGAGAGAAGUGAACCAGAGGAACACACGUUGUGGUAUUUUACCUGGUA [A43G A61U], GUCCUCUUUCACGUGCGCGUGAAAGAGAGAAGUGAACCAGAGUAACACACGUUUUGGUAUAUUACCUGGUA [A43U G54U] is lower in self-cleavage: 0.169 for the first, 0.129 for the second.

Compared with GUCCUCUUUCACGUGCGCGUGAAAGAGAGAAGUGAACCAGAGGAACACACGUUGUGGUAUACUACCUGGUA [A43G U62C], GUCCUCUUUCACGUGCGCGUGAAAGAGAGAAGUGAACCAGAGGAACACACGUUGUGGUAUAAUACCUGGUA [A43G U62A] is lower in self-cleavage: 0.162 for the first, 0.125 for the second.

First: GUCCUCUUUCACGUGCGCGUGAAAGAGAGAAGUGAACCAGAGGAACACACGUUGUGGUAUAGUACCUGGUA [A43G U62G]
Second: GUCCUCUUUCACGUGCGCGUGAAAGAGAGAAGUGAACCAGAGGAACACACGUUGUGCUAUAUUACCUGGUA [A43G G57C]
The self-cleavage of the first is lower: 0.0971 for the first, 0.195 for the second.
